Literature values, collected in paper PMC8125740.
pKd: −log10 of the molar value.

Biological target: Amyloid beta (Homo sapiens) (UniProt P05067)

In the case of “Cellular prion protein (from UniProt P04156)”, the pKd is given as 9.00.
